The values below come from paper PMC3245871 (Journal of molecular biology, 2011).

The target in experiment [1] is T1, Z13-IL22-2 (human, UniProt Q9GZX6, SLADNNT (64–70) replaced by residues WNWDDIT). The experiment can be described thus: ITC. Background: ITC needs no label: the signal is the heat of the interaction.
Experiment [2] deals with T1, Z13-IL22-2. The experiment is described as follows: ITC. This is another data set of the same source.
The target of experiment [3] is T1, Z13-IL22-2. The experiment is described as follows: ITC. The source holds these as a separate data set.
Experiment [4] deals with T2, Z13-IL22-1 (human) (UniProt Q9GZX6).
T2 sequence: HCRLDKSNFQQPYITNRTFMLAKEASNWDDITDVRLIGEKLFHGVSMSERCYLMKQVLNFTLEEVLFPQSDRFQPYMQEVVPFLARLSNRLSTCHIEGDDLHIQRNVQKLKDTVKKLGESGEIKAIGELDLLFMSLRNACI
The experiment can be described thus: ITC.

In experiment [5] the target is T1, Z13-IL22-2. The experiment is described as follows: ITC. This is another data set of the same source.
Experiment [6] deals with WT IL-22 (human, UniProt Q9GZX6). The experiment can be described thus: ELISA. (ELISA stands for enzyme-linked immunosorbent assay.)
Experiment [7] addresses T1, Z13-IL22-2. The experiment can be described thus: ELISA.
Experiment [8] addresses mAb Z13e1 (human). The experiment is described as follows: ELISA.

Read-outs that look alike come from different tables or passages of the source. Bounds are passed on as bounds.

What is called Kd is the free concentration of one partner at which half of the binding sites on the other are occupied at equilibrium, for simple one-to-one binding. Read a high Kd as weaker binding. The IC50 is the concentration that inhibits the measured activity by half. A high value points to a need for much substance.

B1: Fab Z13e1 (Fab, V domains shown)
VH: EVQLLESGPGLLKPSETLSLTCTVSGGSMINYYWSWIRQPPGERPQWLGHIIYGGTTKYNPSLESRITISRDISKNQFSLRLNSVTAADTAIYYCARVAIGVSGFLNYYYYMDVWGSGTAVTVSS
VL: ELTQSPATLSLSPGERATLSCRASQSVGRNLGWYQQKPGQAPRLLIYDASNRATGIPARFSGSGSGTDFTLTISSLEPEDFAVYYCQARLLLPQTFGQGTKVEIK
Take B1: the dH was -7.46 kcal/mol in experiment [1], -10.8 kcal/mol in experiment [2], -7.47 kcal/mol in experiment [4] and -13.9 kcal/mol in experiment [5]. The Kd in experiment [3] was 73 nM; in experiment [4], 15000 nM.

B2: mAb Z13e1 (antibody, V domains shown)
VH: EVQLLESGPGLLKPSETLSLTCTVSGGSMINYYWSWIRQPPGERPQWLGHIIYGGTTKYNPSLESRITISRDISKNQFSLRLNSVTAADTAIYYCARVAIGVSGFLNYYYYMDVWGSGTAVTVSS
VL: ELTQSPATLSLSPGERATLSCRASQSVGRNLGWYQQKPGQAPRLLIYDASNRATGIPARFSGSGSGTDFTLTISSLEPEDFAVYYCQARLLLPQTFGQGTKVEIK
For the molecule B2, the binding result in experiment [6] is given as “no binding”. For the same molecule, in experiment [7], the IC50 is around 150 nM.

The molecule NWFDITNWLWYIKKKK [negative peptide control 94.1] registered an IC50 in experiment [8] above 5000 nM.
